From publication PMC4868700, “Use of a novel cytotoxic HEXIM1 peptide in the directed breast cancer therapy” (Oncotarget, 2015) come the findings set out here.

What all share (assay type): cell-based, Human
In series [1] the test system is MCF7 cells. The experiment in a line: Internalization and intracellular distribution of FITC-labeled peptides, confocal microscopy. Particulars: MCF7, FITC-labeled peptides 30 μM, 30 min, washed three times with PBS, Figure 6A. Here is the method:
(§1) Figure 6 The un-tagged HEXIM1 BR peptide fails to enter cells by itself (A) MCF7 cells were cultured on glass slides overnight before incubation with the indicated FITC-labeled peptides (30 μM) for 30 min and subsequently analyzed by laser scanning confocal microscopy. Nuclei were visualized by DAPI. Cells treated with vehicle, DMSO (0.5%) were used as control. Representative fluorescent images are shown (bar, 10 μm). (B) The FITC-positive cells were quantified by flow cytometry. Data represent percentage of fluorescence-positive cells in total cell population. Results were summarized as mean ± SD of three independent experiments (***P < 0.0001, Student's t test).
To determine the ability of FITC-labeled peptides to enter the cells and to visualize intracellular distribution of the peptides, MCF7 cells were plated on 4-chamber glass cover slides (Lab-Tek) to adhere overnight, incubated with FITC-labeled peptides (30 μM) for 30 min, and then washed three times with PBS before being fixed and mounted with DAPI-containing mounting solution (Vectashield). Images were acquired using a Nikon A1R confocal laser scanning microscope equipped with a 60 × oil-immersion objective lens (SBIC-Nikon Imaging Centre).

The test system of series [2] is MCF7 cells. The experiment in a line: Internalized fluorescent peptide by flow cytometry. The note with it: MCF7, FITC-labeled peptides 30 μM, 30 min at 37°C, washed, trypsinized, mean of three independent experiments, Figure 6B. The protocol:
as §1
MCF7 cells were plated on 6-cm culture dish to allow overnight adherence. FITC-labeled peptides (30 μM) were added to the cells, incubated for 30 min at 37°C, and subsequently washed three times with PBS. The cells were then trypsinized, collected by centrifugation, and finally resuspended in 500 μl ice-cold 2% FBS-containing PBS for flow cytometry analysis.
(In general: Flow cytometry measures light scatter and fluorescence of single cells or particles in a stream.)

Series [3] has as its system MDA-MB-231 cells. Put plainly: Cell viability (CellTiter-Glo). Particulars: MDA-MB-231, different concentrations overnight, Figure 5B, 5D, S2. Here is the method:
(§2) Cells were plated in clear-bottomed white walled 96-well plates (Corning) and incubated overnight. Cells were treated with indicated peptides in 1% FBS-containing media for overnight or indicated timings at 37°C. Cell viability was measured with CellTiter-Glo reagent (Promega) according to the manufacturer's instructions. For cytotoxicity assay, cells were plated in black walled 96-well plates (Corning) to allow them to adhere overnight. Upon treatment with a pan-caspase inhibitor, z-VAD-Fmk (100 μM) (Sigma) and subsequent treatment with LTV-tagged peptides, cytotoxicity induced was determined by CellTox cytotoxicity assay (Promega) 30 minutes after addition of peptides according to the manufacturer's instructions. Luminescence was determined using an Infinite 200 multiplate reader (Tecan).
For orientation: ATP-based viability assays read luminescence as a measure of living cells.

The subject of series [4] is MCF7 cells. Put plainly: Cell viability (CellTiter-Glo). Particulars: MCF7, different concentrations overnight, Figure 5A, 5C. The protocol:
as §2

Entries after “also recorded” stand apart in the source; their conditions may differ. No end group written: not given here.

For the substance “BR-FITC: fluorescent-labeled (FITC) BR peptide (QLGKKKHRRRPSKKKRHW; also: FITC label; UniProt O94992 147-164, looked up, fragment)”, the “internalization and intracellular distribution of fluorescent-labeled peptide” value in series [1] was “no fluorescent signal was observed”. In addition, the “percentage of fluorescence-positive cells in total cell population (internalized fluorescent peptide)” value in series [2] is on record as “no entry”.

With “BR: untagged peptide from the basic region of HEXIM1 containing the HDM2 ubiquitination residues (a.a. 147–164) (QLGKKKHRRRPSKKKRHW; UniProt O94992 147-164, looked up, fragment)”, the cell viability result in series [3] is “had no effect on cell viability; also recorded: remained highly viable”; in series [4], “had no effect on cell viability”.
